Blank lines part the entries; values can stand above or below the molecule they belong to.
Assays:
collagen type I (CI) [1] = experiment: SPR binding of MMPs to immobilized CI, nonactivating buffer; parameters: species or system human; settings: for Off rate / Kd: without (GPO)10, MMP 100 nM, PBS, 0.05% Tween 20, 25°C; for Off rate: mean from at least three experiments; for Kd: mean ± SD, at least three experiments
Experimental: (§1) Sensor chip preparations and SPR measurements were performed using a BiacoreX device and the Bia-evaluation software (version 3.2; Biacore, Uppsala, Sweden). The pepsin-resistant triple-helical part of human fibrillar CI (100 μg/ml) in 10 mM acetate coupling buffer, pH 4.8, was immobilized to a dextran matrix-sensor chip at a flow rate of 5 μl/min, resulting in 5,500 resonance units from CI covalently linked via its primary amino groups. The control flow cell was prepared using the coupling buffer without CI. Surfaces were activated and blocked as described previously. Immediately after thawing, pro- and actMMP-2 and pro- and actMMP-9 were diluted to 100 to 250 nM in MMP activity buffer or in PBS and 0.05% (vol/vol) Tween 20. For SPR measurements, flow rates were 10 μl/min at 25°C, and equilibrium was typically reached after 30 to 60 s. The effects of (GPO)10, GAP, (POG)5, (GPP)10 and P33-42 on MMP-2 and MMP-9 binding to CI and their enzymatic activity were determined by adding the binding competitors to the (pro- and act)MMP-2 and MMP-9 solution in 10- to 150-fold molar excesses. Effects independent of MMP-2 and MMP-9 activity were monitored in the presence of Ro 28-2653 (1 μM) during SPR analysis. The gelatinase inhibitor Ro 28-2653 was a generous gift from H.-W. Krell (Roche, Grenzach-Wyhlen, Germany). Sensor surfaces were regenerated with 10 mM glycine, pH 2.3, for 1 min between runs, and sensor chips were used up to 25 times. Kinetic parameters were analyzed using the 1:1 binding model with drifting baseline and subtraction of the control flow cell binding from sensorgrams obtained with immobilized CI. Binding constants (Kd) were calculated from the association (ka) and dissociation rates (kd) obtained from individual binding curves at different concentrations. Individual drifts of the resonance signal were fitted locally, and χ^2 values of 0.2% to 1.0% of the maximum resonance value were considered good fits.

[2] = In situ binding of MMPs to fibrotic liver sections; parameters: species or system human; settings: immunohistochemistry; 25 ng MMP, 30 min
Experimental: Human cirrhotic liver cryostat sections (5 μm) were air-dried and fixed in ice-cold acetone for 10 min. Tissue sections were rehydrated with PBS and incubated with 25 ng/50 μl of the respective proMMP and actMMP for 30 min or were left untreated. After thorough washing with PBS, antibodies specific for human MMP-9 (clone MAB911; R&D Systems, Minneapolis, MN, USA) and human MMP-2 (clone 75-7F7; Oncogene, Cambridge, MA, USA) were applied, and primary antibody binding was detected using the alkaline phosphatase-antialkaline phosphatase detection system (Dako, Hamburg, Germany). An irrelevant primary mouse antibody served as control. Nuclei were counterstained with Hemalaun, and slides were examined by standard light microscopy.

collagen type I (CI) [3] = experiment: SPR binding of MMP-2 to CI, MMP activity buffer with Ro 28-2653; parameters: species or system human
Experimental: as §1

ProMMP-2 = experiment: DQ-gelatine degradation assay with MMP-2; assay type: biochemical, human; settings: MMP alone; 10 ng; 5 h at 25°C; plateau (actMMP-2) or baseline (proMMP-2) level

Off rate (collagen type I (CI) [1]): 0.32 s⁻¹ | Kd (collagen type I (CI) [1]): 120 ± 90 nM | binding to liver sections [2]: preferential staining of fibrotic septa
B1: ProMMP-9: 92-kDa latent proform of human recombinant MMP-9 (protein)
chain: APRQRQSTLVLFPGDLRTNLTDRQLAEEYLYRYGYTRVAEMRGESKSLGPALLLLQKQLSLPETGELDSATLKAMRTPRCGVPDLGRFQTFEGDLKWHHHNITYWIQNYSEDLPRAVIDDAFARAFALWSAVTPLTFTRVYSRDADIVIQFGVAEHGDGYPFDGKDGLLAHAFPPGPGIQGDAHFDDDELWSLGKGVVVPTRFGNADGAACHFPFIFEGRSYSACTTDGRSDGLPWCSTTANYDTDDRFGFCPSERLYTQDGNADGKPCQFPFIFQGQSYSACTTDGRSDGYRWCATTANYDRDKLFGFCPTRADSTVMGGNSAGELCVFPFTFLGKEYSTCTSEGRGDGRLWCATTSNFDSDKKWGFCPDQGYSLFLVAAHEFGHALGLDHSSVPEALMYPMYRFTEGPPLHKDDVNGIRHLYGPRPEPEPRPPTTTTPQPTAPPTVCPTGPPTVHPSERPTAGPTGPPSAGPTGPPTAGPSTATTVPLSPVDDACNVNIFDAIAEIGNQLYLFKDGKYWRFSEGRGSRPQGPFLIADKWPALPRKLDSVFEERLSKKLFFFSGRQVWVYTGASVLGPRRLDKLGLGADVAQVTGALRSGRGKMLLFSGRRLWRFDVKAQMVDPRSASEVDRMFPGVPLDTHDVFQYREKAYFCQDRFYWRVSSRSELNQVDQVGYVTYDILQCPED
modifications: [125I]-Bolton-Hunter label in the solid-phase assays (dot blot, microwells); no label told for SPR and immunohistochemistry

reduction of binding upon MMP activation (collagen type I (CI) [3]; MMP activity buffer with Ro 28-2653): 35 -fold | binding enhancement to CI (collagen type I (CI) [3]; MMP activity buffer with Ro 28-2653 vs nonactivating buffer): 10 -fold | Kd (collagen type I (CI) [3]; no competitor, MMP-2 100 nM, MMP activity buffer, 1 μM Ro 28-2653, 25°C, mean ± SD, at least three experiments): 7.1 ± 0.1 nM | reduction of binding upon MMP activation (collagen type I (CI) [1]; nonactivating buffer): 2.5 -fold | Off rate (collagen type I (CI) [1]): ~0.48 s⁻¹ | Kd (collagen type I (CI) [1]): 70 ± 30 nM | binding to liver sections [2]: preferential staining of fibrotic septa
B2: ProMMP-2: 72-kDa latent proform of human recombinant MMP-2 (protein)
chain: APSPIIKFPGDVAPKTDKELAVQYLNTFYGCPKESCNLFVLKDTLKKMQKFFGLPQTGDLDQNTIETMRKPRCGNPDVANYNFFPRKPKWDKNQITYRIIGYTPDLDPETVDDAFARAFQVWSDVTPLRFSRIHDGEADIMINFGRWEHGDGYPFDGKDGLLAHAFAPGTGVGGDSHFDDDELWTLGEGQVVRVKYGNADGEYCKFPFLFNGKEYNSCTDTGRSDGFLWCSTTYNFEKDGKYGFCPHEALFTMGGNAEGQPCKFPFRFQGTSYDSCTTEGRTDGYRWCGTTEDYDRDKKYGFCPETAMSTVGGNSEGAPCVFPFTFLGNKYESCTSAGRSDGKMWCATTANYDDDRKWGFCPDQGYSLFLVAAHEFGHAMGLEHSQDPGALMAPIYTYTKNFRLSQDDIKGIQELYGASPDIDLGTGPTPTLGPVTPEICKQDIVFDGIAQIRGEIFFFKDRFIWRTVTPRDKPMGPLLVATFWPELPEKIDAVYEAPQEEKAVFFAGNEYWIYSASTLERGYPKPLTSLGLPPDVQRVDAAFNWSKNKKTYIFAGDKFWRYNEVKKKMDPGFPKLIADAWNAIPDNLDAVVDLQGGGHSYFFKGAYYLKLENQSLKSVKFGSIKSDWLGC
modifications: [125I]-Bolton-Hunter label in the solid-phase assays (dot blot, microwells); Cy2 label in the tissue release experiment; no label told for SPR and immunohistochemistry
DQ-gelatine conversion (ProMMP-2): about 200 relative fluorescence units

Source: paper PMC3024946, “Hydroxyproline-containing collagen analogs trigger the release and activation of collagen-sequestered proMMP-2 by competition with prodomain-derived peptide P33-42” (Fibrogenesis & Tissue Repair, 2011)
